Laboratory results published in publication PMC13544220, “Glycemic and bodyweight effects of GIPR coding variation reflect differences in surface expression and intrinsic functional impairment” (Science Advances, 2026).

How the values were obtained:
Format in all cases: cell-based, human
[1] = tested on: wild-type and variant SNAP-GIPR; assay: Surface SNAP-GIPR expression (SNAP-tag labelling) in AD293 cells; conditions: for AD293 Surface: Fig S3E, mean; for Surface SNAP-GIPR expression: sheet Fig 1C;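 for all read-outs here: scaled to the experimental average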
Summary of the method: (§1)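 Surface GIPR is quantified from wide-field images after labelling intact transfected cells with a membrane-impermeant SNAP probe at 500 nM for 10 min at room temperature. Specific signal, corrected for nontransfected cells, is normalized to the experiment-wide average or to wild-type.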

[2] = tested on: wild-type and variant SNAP-GIPR; assay: Surface SNAP-GIPR expression (SNAP-tag labelling) in INS-1 cells; conditions: Fig 4G; Mean
Summary of the method: as §1

[3] = tested on: wild-type and variant SNAP-GIPR; assay: Single-concentration GIP cAMP response by HTRF in AD293 cells; conditions: Fig S3F, HTRF, mean;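 note: ratio to experiment-wide average response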
Protocol: (§2) All variants were tested in parallel on each occasion to control for transfection efficiency differences between experiments.

[4] = tested on: wild-type and variant SNAP-GIPR; assay: Single-concentration GIP cAMP response by HTRF in INS-1 cells; conditions: Fig S3E, mean
Protocol: as §2

[5] = tested on: wild-type and variant SNAP-GIPR; assay: cADDis cAMP imaging in AD293 cells, ensemble, expression-matched and per decile; conditions: Fig S3F, cADDis, mean
Summary of the method: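 Transient SNAP-GIPR plus cADDis BacMam in AD293; 24 h; SNAP-Surface AF647 500 nM, 10 min RT; wide-field 10X imaging at 37°C in KRBH/6 mM glucose/0.1% BSA. Cells failing IBMX/FSK response criteria excluded.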

[6] = tested on: wild-type and variant SNAP-GIPR; assay: Constitutive and agonist-mediated internalization, reversible SNAP-tag labelling, AD293 cells; parameters: key to Internalisation, Vehicle / Internalisation, +GIP / Internalisation, GIP-only: % internalization: residual fluorescence after Mesna vs pre-Mesna; Surface expression: unit not given here; conditions: Mean; for +GIP internalisation (100 nM) / GIP-specific internalisation (100 nM) / Constitutive internalisation (100 nM) / Surface expression: Fig 4E; for +GIP internalisation (100 nM) / GIP-specific internalisation (100 nM): GIP 100 nM; for Internalisation, +GIP / Internalisation, GIP-only / Internalisation, Vehicle: Fig S4C, AD293
Summary of the method: (§3)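 Surface SNAP-GIPR signal removable by Mesna was tracked by imaging before and 10 min after treatment in pH 8.6 TNE buffer. Internalization is the Mesna-resistant share of specific fluorescence.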

[7] = tested on: wild-type and variant SNAP-GIPR; assay: Constitutive and agonist-mediated internalization, reversible SNAP-tag labelling, INS-1 cells; parameters: key to Internalisation, GIP-only / Internalisation, Vehicle / Internalisation, +GIP: % internalization: residual fluorescence after Mesna vs pre-Mesna; conditions: Mean; for +GIP internalisation (100 nM) / GIP-specific internalisation (100 nM) / Constitutive internalisation (100 nM): Fig 4G; for +GIP internalisation (100 nM) / GIP-specific internalisation (100 nM): GIP 100 nM; for Internalisation, +GIP / Internalisation, GIP-only / Internalisation, Vehicle: Fig S4C, INS-1
Summary of the method: as §3

[8] = column repeated, paired with cAMP 100 nM

B1: R336P (protein, UniProt P48546 22-466, looked up, variant R336P)
Gastric inhibitory …: RAETGSKGQTAGELYQRWERYRRECQETLAAAEPPSGLACNGSFDMYVCWDYAAPNATARASCPWYLPWHHHVAAGFVLRQCGSDGQWGLWRDHTQCENPEKNEAFLDQRLILERLQVMYTVGYSLSLATLLLALLILSLFRRLHCTRNYIHINLFTSFMLRAAAILSRDRLLPRPGPYLGDQALALWNQALAACRTAQIVTQYCVGANYTWLLVEGVYLHSLLVLVGGSEEGHFRYYLLLGWGAPALFVIPWVIVRYLYENTQCWERNEVKAIWWIIRTPILMTILINFLIFIRILGILLSKLRTRQMRCRDYPLRLARSTLTLVPLLGVHEVVFAPVTEEQARGALRFAKLGFEIFLSSFQGFLVSVLYCFINKEVQSEIRRGWHHCRLRRSLGEEQRQLPERAFRALPSGSGPGEVPTSRGLSSGTLPGPGNEASRELESYC
AD293 Surface [1, 8]: 0.9922 | AD293 Surface ([1]; paired with cAMP 100 pM): 0.9922 | Surface SNAP-GIPR expression ([1]; replicate 1): 1.065 | Surface SNAP-GIPR expression ([1]; replicate 2): 0.5013 | Surface SNAP-GIPR expression ([1]; replicate 3): 1.132 | Surface SNAP-GIPR expression ([1]; replicate 4): 0.7089 | Surface SNAP-GIPR expression ([1]; replicate 5): 1.372 | Surface SNAP-GIPR expression ([1]; replicate 6): 0.9533 | Surface SNAP-GIPR expression ([1]; replicate 7): 1.085 | Surface SNAP-GIPR expression ([1]; replicate 8): 0.9069 | Surface SNAP-GIPR expression ([1]; replicate 9): 0.9059 | Surface SNAP-GIPR expression ([1]; replicate 10): 0.7148 | Surface SNAP-GIPR expression ([1]; replicate 11): 1.055 | Surface SNAP-GIPR expression ([1]; replicate 12): 1.013 | Surface SNAP-GIPR expression ([1]; replicate 13): 0.7103 | Surface SNAP-GIPR expression ([1]; replicate 14): 1.142 | Surface SNAP-GIPR expression ([1]; replicate 15): 0.8074 | Surface SNAP-GIPR expression ([1]; replicate 16): 0.9322 | Surface SNAP-GIPR expression ([1]; replicate 17): 0.8667 | Surface SNAP-GIPR expression ([1]; replicate 18): 1.004 | Surface SNAP-GIPR expression ([1]; replicate 19): 0.9824 | Surface SNAP-GIPR expression ([1]; replicate 20): 1.058 | Surface SNAP-GIPR expression ([1]; replicate 21): 0.9727 | Surface SNAP-GIPR expression ([1]; replicate 22): 0.8965 | Surface SNAP-GIPR expression ([1]; replicate 23): 0.778 | Surface SNAP-GIPR expression ([1]; replicate 24): 0.7544 | Surface SNAP-GIPR expression ([1]; replicate 25): 1.062 | Surface SNAP-GIPR expression ([1]; replicate 26): 1.025 | Surface SNAP-GIPR expression ([1]; replicate 27): 0.9727 | Surface SNAP-GIPR expression ([1]; replicate 28): 0.7869 | Surface SNAP-GIPR expression ([1]; replicate 29): 1.148 | Surface SNAP-GIPR expression ([1]; replicate 30): 1.341 | Surface SNAP-GIPR expression ([1]; replicate 31): 1.222 | Surface SNAP-GIPR expression ([1]; replicate 32): 1.042 | Surface SNAP-GIPR expression ([1]; replicate 33): 1.006 | Surface SNAP-GIPR expression ([1]; replicate 34): 0.7344 | Surface SNAP-GIPR expression ([1]; replicate 35): 1.077 | Surface SNAP-GIPR expression ([1]; replicate 36): 1.167 | Surface SNAP-GIPR expression ([1]; replicate 37): 1.212 | Surface SNAP-GIPR expression ([1]; replicate 38): 1.22 | Surface SNAP-GIPR expression ([1]; replicate 39): 1.259 | Surface SNAP-GIPR expression ([1]; replicate 40): 1.054 | Surface SNAP-GIPR expression ([1]; replicate 41): 1.032 | Surface expression [2]: 0.9442 | AD293 100 pM HTRF [3]: 1.285 | AD293 100 nM HTRF [3]: 1.143 | INS-1 cAMP (100 nM) [4]: 0.7986 | AD293 100 pM cADDis [5]: 30.0491 | AD293 100 nM cADDis [5]: 33.63 | +GIP internalisation (100 nM) [6]: 0.6438 | GIP-specific internalisation (100 nM) [6]: 0.1531 | Constitutive internalisation (100 nM) [6]: 0.4907 | Surface expression [6]: 1.092 | Internalisation, +GIP [6]: 55.5681 | Internalisation, GIP-only [6]: 13.0056 | Internalisation, Vehicle [6]: 42.5625 | +GIP internalisation (100 nM) [7]: 0.578 | GIP-specific internalisation (100 nM) [7]: 0.1817 | Constitutive internalisation (100 nM) [7]: 0.3963 | Internalisation, +GIP [7]: 55.395 | Internalisation, GIP-only [7]: 16.7483 | Internalisation, Vehicle [7]: 38.6467

B2: R404H (protein, UniProt P48546 22-466, looked up, variant R404H)
Gastric inhibitory …: RAETGSKGQTAGELYQRWERYRRECQETLAAAEPPSGLACNGSFDMYVCWDYAAPNATARASCPWYLPWHHHVAAGFVLRQCGSDGQWGLWRDHTQCENPEKNEAFLDQRLILERLQVMYTVGYSLSLATLLLALLILSLFRRLHCTRNYIHINLFTSFMLRAAAILSRDRLLPRPGPYLGDQALALWNQALAACRTAQIVTQYCVGANYTWLLVEGVYLHSLLVLVGGSEEGHFRYYLLLGWGAPALFVIPWVIVRYLYENTQCWERNEVKAIWWIIRTPILMTILINFLIFIRILGILLSKLRTRQMRCRDYRLRLARSTLTLVPLLGVHEVVFAPVTEEQARGALRFAKLGFEIFLSSFQGFLVSVLYCFINKEVQSEIHRGWHHCRLRRSLGEEQRQLPERAFRALPSGSGPGEVPTSRGLSSGTLPGPGNEASRELESYC
AD293 Surface [1, 8]: 0.7424 | AD293 Surface ([1]; paired with cAMP 100 pM): 0.7424 | Surface SNAP-GIPR expression ([1]; replicate 1): 0.7731 | Surface SNAP-GIPR expression ([1]; replicate 2): 0.8601 | Surface SNAP-GIPR expression ([1]; replicate 3): 1.364 | Surface SNAP-GIPR expression ([1]; replicate 4): 1.202 | Surface SNAP-GIPR expression ([1]; replicate 5): 0.6596 | Surface SNAP-GIPR expression ([1]; replicate 6): 0.8044 | Surface SNAP-GIPR expression ([1]; replicate 7): 1.014 | Surface SNAP-GIPR expression ([1]; replicate 8): 0.8566 | Surface SNAP-GIPR expression ([1]; replicate 9): 0.836 | Surface SNAP-GIPR expression ([1]; replicate 10): 0.8174 | Surface SNAP-GIPR expression ([1]; replicate 11): 0.6917 | Surface SNAP-GIPR expression ([1]; replicate 12): 0.5756 | Surface SNAP-GIPR expression ([1]; replicate 13): 0.812 | Surface SNAP-GIPR expression ([1]; replicate 14): 0.5735 | Surface SNAP-GIPR expression ([1]; replicate 15): 0.518 | Surface SNAP-GIPR expression ([1]; replicate 16): 0.5844 | Surface SNAP-GIPR expression ([1]; replicate 17): 0.7582 | Surface SNAP-GIPR expression ([1]; replicate 18): 0.6508 | Surface SNAP-GIPR expression ([1]; replicate 19): 0.4867 | Surface SNAP-GIPR expression ([1]; replicate 20): 0.616 | Surface SNAP-GIPR expression ([1]; replicate 21): 0.5336 | Surface SNAP-GIPR expression ([1]; replicate 22): 0.6715 | Surface SNAP-GIPR expression ([1]; replicate 23): 0.7341 | Surface SNAP-GIPR expression ([1]; replicate 24): 0.6837 | Surface SNAP-GIPR expression ([1]; replicate 25): 0.9077 | Surface SNAP-GIPR expression ([1]; replicate 26): 0.65 | Surface SNAP-GIPR expression ([1]; replicate 27): 0.7009 | Surface SNAP-GIPR expression ([1]; replicate 28): 0.5824 | Surface SNAP-GIPR expression ([1]; replicate 29): 0.9349 | Surface SNAP-GIPR expression ([1]; replicate 30): 0.779 | Surface SNAP-GIPR expression ([1]; replicate 31): 0.9227 | Surface SNAP-GIPR expression ([1]; replicate 32): 0.586 | Surface SNAP-GIPR expression ([1]; replicate 33): 0.6419 | Surface SNAP-GIPR expression ([1]; replicate 34): 0.7664 | Surface SNAP-GIPR expression ([1]; replicate 35): 0.5787 | Surface SNAP-GIPR expression ([1]; replicate 36): 0.8557 | Surface SNAP-GIPR expression ([1]; replicate 37): 0.7468 | Surface SNAP-GIPR expression ([1]; replicate 38): 0.7266 | Surface SNAP-GIPR expression ([1]; replicate 39): 0.577 | Surface SNAP-GIPR expression ([1]; replicate 40): 0.6491 | Surface SNAP-GIPR expression ([1]; replicate 41): 0.7544 | Surface expression [2]: 0.8156 | AD293 100 pM HTRF [3]: 0.3628 | AD293 100 nM HTRF [3]: 1.255 | INS-1 cAMP (100 nM) [4]: 0.9867 | AD293 100 pM cADDis [5]: 26.6869 | AD293 100 nM cADDis [5]: 37.59 | +GIP internalisation (100 nM) [6]: 0.4112 | GIP-specific internalisation (100 nM) [6]: 0.07509 | Constitutive internalisation (100 nM) [6]: 0.3361 | Surface expression [6]: 0.7754 | Internalisation, +GIP [6]: 56.8624 | Internalisation, GIP-only [6]: 10.8785 | Internalisation, Vehicle [6]: 45.9839 | +GIP internalisation (100 nM) [7]: 0.3918 | GIP-specific internalisation (100 nM) [7]: 0.07675 | Constitutive internalisation (100 nM) [7]: 0.3151 | Internalisation, +GIP [7]: 48.5 | Internalisation, GIP-only [7]: 9.682 | Internalisation, Vehicle [7]: 38.8183
